B1: FAS-associated death domain protein (Homo sapiens), Q13158 (parent)
chain: MDPFLVLLHSVSSSLSSSELTELKFLCLGRVGKRKLERVQSGLDLFSMLLEQNDLEPGHTELLRELLASLRRHDLLRRVDDFEAGAAAGAAPGEEDLCAAFNVICDNVGKDWRRLARQLKVSDTKIDSIEDRYPRNLTERVRESLRIWKNTEKENATVAHLVGALRSCQMNLVADLVQEVQQARDLQNRSGAMSPMSWNSDASTSEAS

Variants of: B1
Conditions: with plk1_human PLK1, P53350
Chain of plk1_human PLK1, P53350 (P53350 whole entry): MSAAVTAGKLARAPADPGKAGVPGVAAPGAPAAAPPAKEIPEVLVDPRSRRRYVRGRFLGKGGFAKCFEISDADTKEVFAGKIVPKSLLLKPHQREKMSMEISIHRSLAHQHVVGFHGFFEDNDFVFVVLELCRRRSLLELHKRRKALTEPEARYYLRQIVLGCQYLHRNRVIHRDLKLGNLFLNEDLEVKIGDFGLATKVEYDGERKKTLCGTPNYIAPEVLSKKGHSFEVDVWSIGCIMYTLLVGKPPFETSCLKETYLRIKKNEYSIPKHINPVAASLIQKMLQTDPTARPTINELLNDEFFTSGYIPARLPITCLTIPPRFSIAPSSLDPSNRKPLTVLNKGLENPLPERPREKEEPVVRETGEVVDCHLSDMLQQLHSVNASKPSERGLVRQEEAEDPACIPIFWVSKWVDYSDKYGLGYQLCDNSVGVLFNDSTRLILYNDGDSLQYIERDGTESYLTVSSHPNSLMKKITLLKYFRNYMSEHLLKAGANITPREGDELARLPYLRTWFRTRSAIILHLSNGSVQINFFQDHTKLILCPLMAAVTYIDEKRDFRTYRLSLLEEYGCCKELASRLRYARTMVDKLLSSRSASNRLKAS

| Variant | effect of a mutation on the interaction |
| --- | --- |
| MDPFLVLLHSVSSSLSSSELTELKFLCLGRVGKRKLERVQSGLDLFSMLLEQNDLEPGHTELLRELLASLRRHDLLRRVDDFEAGAAAGAAPGEEDLCAAFNVICDNVGKDWRRLARQLKVSDTKIDSIEDRYPRNLTERVRESLRIWKNTEKENATVAHLVGALRSCQMNLVADLVQEVQQARDLQNRSGAMAPMSWNSDASTSEAS [S194A] | disrupting interaction |
